From paper PMC6061780
pKd: −log10 of the molar value.

molecular target: Sc eIF4E (residues T25–L213), His6 tag removed (Saccharomyces cerevisiae) (UniProt P07260); experiment: ITC
Sequence (P07260 25-213): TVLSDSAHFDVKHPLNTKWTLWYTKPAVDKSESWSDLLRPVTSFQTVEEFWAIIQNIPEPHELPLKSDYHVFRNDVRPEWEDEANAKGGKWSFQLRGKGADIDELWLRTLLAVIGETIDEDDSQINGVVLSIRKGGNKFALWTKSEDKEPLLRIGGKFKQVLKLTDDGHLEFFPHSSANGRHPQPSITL

Chain of Sc p20 canonical motif (C)-GB1 (domain or fragment) (P12962 whole entry, the tested form may be a part): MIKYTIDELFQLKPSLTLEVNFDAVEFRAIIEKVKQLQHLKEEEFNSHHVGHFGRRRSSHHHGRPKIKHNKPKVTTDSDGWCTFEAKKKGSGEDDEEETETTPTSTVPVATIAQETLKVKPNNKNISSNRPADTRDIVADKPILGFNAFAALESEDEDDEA

Q: With “Sc p20 canonical motif (C)-GB1 (domain or fragment)” as the substance, how does the pKd read?
A: 7.70

Q: With “Sc eIF4G canonical motif (C)-GB1 (domain or fragment)” as the substance, how does the pKd read?
A: 5.70

Q: How did the pKd turn out when “Sc eIF4G (residues V448–N500; C+L+NC)-GB1 (from UniProt P39935 448-500) (domain or fragment)” was run?
A: 7.15
